T1: human PD-L2 (human, UniProt Q9BQ51 20-273)
T1 construct: Expressed on transfected COS and 300.19 cells (300-hPD-L2); also called hPD-L2
T1 sequence: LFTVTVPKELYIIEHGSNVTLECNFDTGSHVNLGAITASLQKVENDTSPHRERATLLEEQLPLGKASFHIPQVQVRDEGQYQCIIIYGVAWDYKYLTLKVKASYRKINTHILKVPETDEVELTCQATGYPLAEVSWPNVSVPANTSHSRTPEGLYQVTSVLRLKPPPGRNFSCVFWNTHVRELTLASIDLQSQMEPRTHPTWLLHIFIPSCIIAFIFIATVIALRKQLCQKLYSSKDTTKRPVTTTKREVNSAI

B1: IgG2a (control Ig) (other, mouse, UniProt P01863 98-330, looked up)
chain: EPRGPTIKPCPPCKCPAPNLLGGPSVFIFPPKIKDVLMISLSPIVTCVVVDVSEDDPDVQISWFVNNVEVHTAQTQTHREDYNSTLRVVSALPIQHQDWMSGKEFKCKVNNKDLPAPIERTISKPKGSVRAPQVYVLPPPEEEMTKKQVTLTCMVTDFMPEDIYVEWTNNGKTELNYKNTEPVLDSDGSYFMYSKLRVEKKNWVERNSYSCSVVHEGLHNHHTTKSFSRTPGK
notes: Control protein

Tests used:
human PD-L2 = target: T1, human PD-L2; experiment: FACS on transfected COS cells
IgG2a (control Ig) = target: B1; experiment: FACS on transfected COS cells

binding result (human PD-L2) | binding result (IgG2a (control Ig)) | Binder
no binding | – | B1
– | no binding | mouse PD-L2 (ligand, Expressed on transfected COS, CHO.I-A^d, CHO.I-A^d.B7-2 and 300.19 cells; also called murine PD-L2; mPD-L2) LFTVTAPKEVYTVDVGSSVSLECDFDRRECTELEGIRASLQKVENDTSLQSERATLLEEQLPLGKALFHIPSVQVRDSGQYRCLVICGAAWDYKYLTVKVKASYMRIDTRILEVPGTGEVQLTCQARGYPLAEVSWQNVSVPANTSHIRTPEGLYQVTSVLRLKPQPSRNFSCMFWNAHMKELTSAIIDPLSRMEPKVPRTWPLHVFIPACTIALIFLAIVIIQRKRI

Reference: US20020164600A1 (Dana-Farber, published 2002)
